According to US20240368275A1 (ELPIS BIOPHARMACEUTICALS, published 2024):

T1: full-length human Nectin4 with C-terminal flag and Myc tags on CHO cells (human, UniProt Q96NY8 32-510)
T1 sequence (looked up): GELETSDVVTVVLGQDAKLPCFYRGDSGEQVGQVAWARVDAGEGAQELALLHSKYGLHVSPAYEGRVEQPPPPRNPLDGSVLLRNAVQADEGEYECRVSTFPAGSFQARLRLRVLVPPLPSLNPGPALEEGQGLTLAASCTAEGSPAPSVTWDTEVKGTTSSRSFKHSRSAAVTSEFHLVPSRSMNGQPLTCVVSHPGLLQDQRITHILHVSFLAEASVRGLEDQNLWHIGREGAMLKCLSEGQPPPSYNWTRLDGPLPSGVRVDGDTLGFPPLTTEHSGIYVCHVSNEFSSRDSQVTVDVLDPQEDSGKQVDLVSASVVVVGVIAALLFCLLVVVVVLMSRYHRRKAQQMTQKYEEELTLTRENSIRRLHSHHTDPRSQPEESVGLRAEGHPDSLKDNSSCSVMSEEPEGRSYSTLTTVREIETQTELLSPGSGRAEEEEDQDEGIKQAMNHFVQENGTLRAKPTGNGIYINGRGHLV

T2: mouse nectin4 protein (mouse, UniProt Q8R007 31-347, limits assumed)
T2 sequence (looked up): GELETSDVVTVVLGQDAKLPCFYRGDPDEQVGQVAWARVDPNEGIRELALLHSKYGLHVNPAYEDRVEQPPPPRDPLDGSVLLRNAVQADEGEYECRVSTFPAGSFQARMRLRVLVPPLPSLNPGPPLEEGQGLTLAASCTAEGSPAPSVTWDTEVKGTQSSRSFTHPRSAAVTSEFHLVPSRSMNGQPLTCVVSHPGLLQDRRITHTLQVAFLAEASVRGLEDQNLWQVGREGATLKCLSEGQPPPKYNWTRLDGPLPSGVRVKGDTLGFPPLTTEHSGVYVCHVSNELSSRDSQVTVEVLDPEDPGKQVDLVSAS

T3: human Nectin4-HIS tagged recombinant protein (human, UniProt Q96NY8 32-349)
T3 construct: also called hNectin4-HIS; Nectin4 HIS tagged protein; not shown: HIS tag
T3 sequence (looked up): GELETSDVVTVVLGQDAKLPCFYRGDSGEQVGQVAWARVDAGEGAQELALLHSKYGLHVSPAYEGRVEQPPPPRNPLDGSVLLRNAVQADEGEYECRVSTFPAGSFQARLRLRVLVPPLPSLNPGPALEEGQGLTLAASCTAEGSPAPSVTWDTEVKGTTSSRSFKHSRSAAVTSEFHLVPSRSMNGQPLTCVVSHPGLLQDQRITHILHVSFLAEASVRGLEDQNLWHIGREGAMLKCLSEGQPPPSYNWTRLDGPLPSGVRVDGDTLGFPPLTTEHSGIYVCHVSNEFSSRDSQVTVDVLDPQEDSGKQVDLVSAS

B1: 2020EP034-B09 IgG (EP299/EP289) (antibody, V domains shown)
VH: EVQLVQSGAEVKKPGASVKVSCKASGYTFTGYYMHWVRQAPGQGLEWMGRINPNSGGTNYAQKFQGRVTMTRDTSISTAYMELSGLRSDDTAVYFCARVTYNIGWYIDYWGQGTLVTVSS
VL: QAVVTQPPSVSVAPGKTATITCGGNNIGSKGVHWYQQKPGQAPVLVIYYDTDRPSGIPERLSGSNSGNTATLTISRVEAGDEADYYCQVWDSSSDHPVFGGGTKLTVLG
notes: Human IgG1 with lambda light chain; entries without signal peptide used; also called EP034-B09, mAb
B2: 2020EP034-E01 IgG (EP296/EP286) (antibody, V domains shown)
VH: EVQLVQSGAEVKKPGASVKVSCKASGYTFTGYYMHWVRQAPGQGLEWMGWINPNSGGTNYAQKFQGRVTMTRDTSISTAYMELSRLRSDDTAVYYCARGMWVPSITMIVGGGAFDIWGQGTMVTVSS
VL: DVVMTQSPLSLPVTPGEPASMSCRSSESLLHRNGFNYLDWYVQRPGQSPKLLIYMGSYRASGVPDRFSGRGSGTDFALKISRVEAEDVGVYYCMQALQSPPLYTFGPGTKLEIKR
notes: Human IgG1
B3: EP369/EP370/EP289 anti-Nectin4/CD3 bispecific antibody (bispecific antibody)
chain: not shown
heavy: EVQLVQSGAEVKKPGASVKVSCKASGYTFTGYYMHWVRQAPGQGLEWMGRINPNSGGTNYAQKFQGRVTMTRDTSISTAYMELSGLRSDDTAVYFCARVTYNIGWYIDYWGQGTLVTVSSASTKGPSVFPLAPSSKSTSGGTAALGCLVKDYFPEPVTVSWNSGALTSGVHTFPAVLQSSGLYSLSSVVTVPSSSLGTQTYICNVNHKPSNTKVDKKVEPKSCDKTHTCPPCPAPEAAGGPSVFLFPPKPKDTLMISRTPEVTCVVVDVSHEDPEVKFNWYVDGVEVHNAKTKPREEQYNSTYRVVSVLTVLHQDWLNGKEYKCKVSNKALGAPIEKTISKAKGQPREPQVCTLPPSRDELTKNQVSLSCAVKGFYPSDIAVEWESNGQPENNYKTTPPVLDSDGSFKLVSKLTVDKSRWQQGNVFSCSVMHEALHNHYTQKSLSLSPGK
light: QAVVTQPPSVSVAPGKTATITCGGNNIGSKGVHWYQQKPGQAPVLVIYYDTDRPSGIPERLSGSNSGNTATLTISRVEAGDEADYYCQVWDSSSDHPVFGGGTKLTVLGQPKANPTVTLFPPSSEELQANKATLVCLISDFYPGAVTVAWKADGSPVKAGVETTKPSKQSNNKYAASSYLSLTPEQWKSHRSYSCQVTHEGSTVEKTVAPTECS
notes: Monovalent format: anti-CD3 sp34 scFv-Fc knob (EP369), EP034-B09 heavy chain hole without ADCC (EP370), EP034-B09 light chain (EP289); also called EP369/370/289

Assays:
[1] = target: T1, full-length human Nectin4 with …; experiment: cell-based or functional assay
mouse nectin4 protein = target: T2, mouse nectin4 protein; experiment: ELISA, coated mouse nectin4, IgG titrated, anti-hFc HRP
monkey nectin4 protein = monkey nectin4 protein (monkey); experiment: ELISA, coated monkey nectin4, IgG titrated, anti-hFc HRP
[2] = target: T3, human Nectin4-HIS tagged recombinant …; experiment: ELISA, coated human Nectin4-HIS, IgG titrated, anti-hFc HRP
Method: An ELISA assay was developed to determine the EC₅₀ of exemplary anti-Nectin4 IgG antibodies. Briefly, 384 well plate was immobilized with human Nectin4-HIS tagged recombinant protein at final concentration of 2 ug/mL in 1×PBS in total volume of 25 uL per well. The plate was incubated overnight at 4° C. followed by blocking with 80 uL of superblock per well for 1 hour. Titration of purified anti-Nectin4 IgG starting at 200 nM 2-fold serial dilution, 25 uL was added to human Nectin4 immobilized wells and incubated for 1 hour with shaking. The Nectin4 binding was detected by adding 25 uL of anti-hFc HRP diluted at 1:5000 in 1×PBST. In between each step, the plate was washed 3 times with 1×PBST in a plate washer. The plate was then developed with 20 ul of TMB substrate for 5 mins and stopped by adding 20 ul of 2N sulfuric acid. The plate was read at OD450 nm Biotek plate reader and then plotted in Prism 8.1 software.

[3] = target: T3, human Nectin4-HIS tagged recombinant …; experiment: ELISA, coated human Nectin4-HIS, antibody titrated, anti-hFc HRP
[4] = target: T1, full-length human Nectin4 with …; experiment: flow cytometry, IgG on Nectin4/CHO cells, anti-hFc Alexa fluor 647
Method: 200 nM of purified anti-Nectin4 IgG antibodies were diluted in full medium and incubated with Nectin4/CHO and CHO cells in 96 wells plate on ice for 1 hour. Cells were spun down at 1200 rpm for 5 minutes at 4° C. to remove primary antibodies. Cells were then washed once with 200 uL of full medium per well. Samples were detected with anti-hFc Alexa fluor 647 by adding 100 uL of diluted secondary antibody and incubated at 4° C. for 30 minutes in the dark. Samples were spun down at 1200 rpm for 5 minutes at 4° C. and washed twice with 200 uL of 1×PBS per well. Reconstituted samples in 200 uL of 1×PBS and read on Attune NxT cytometer. Analysis was done by Attune NxT software plotting the overlay histogram of […] proteins binding onto both negative and target cell lines.

[5] = target: T3, human Nectin4-HIS tagged recombinant …; experiment: SPR Biacore T200, IgG captured on Protein A chip, hNectin4-HIS injected
Method: Kinetic analysis of anti-Nectin4 IgG has been assessed by the SPR technology with Biacore T200. The assay was run with Biacore T200 control software version 2.0. For each cycle, 1 ug/mL of anti-hNectin4-IgG was captured for 60 seconds at flow rate of 10 ul/min on flow cell 2 in 1×HBSP buffer on Protein A sensor chip. 2-fold serial hNectin4-HIS tagged protein was injected onto both reference flow cell 1 and anti-Nectin4 IgG captured flow cell 2 for 150 seconds at flow rate of 30 ul/mins followed by wash for 300 seconds. The flow cells were then regenerated with Glycine pH2 for 60 seconds at flow rate of 30 ul/mins. 8 concentration points from 100-0 nM was assayed per anti-Nectin4 IgG in a 96 well plate. The kinetics of Anti-Nectin4 IgG binding to Nectin4 protein was analyzed with Biacore T200 evaluation software version 3.0. The specific binding response unit was derived from subtraction of binding to reference flow cell 1 from antibody captured flow cell 2.

CD3 on Jurkat cells [6] = target: T4, CD3 on Jurkat cells (UniProt P07766 23-207, limits assumed); experiment: cell-based or functional assay
T4 sequence (P07766 23-207 limits assumed): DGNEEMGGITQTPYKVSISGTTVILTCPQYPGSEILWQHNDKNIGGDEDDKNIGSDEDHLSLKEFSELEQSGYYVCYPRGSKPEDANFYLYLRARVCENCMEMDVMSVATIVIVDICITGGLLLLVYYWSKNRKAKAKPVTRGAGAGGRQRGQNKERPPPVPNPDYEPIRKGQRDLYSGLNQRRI

CD3 on Jurkat cells [7] = target: T4, CD3 on Jurkat cells; experiment: flow cytometry on Jurkat cells
Method: Jurkat cells were plated at 100,000 cells/well in a 96-well plate with 50 μL of full media. Anti-Nectin4/CD3 antibodies were 3-fold serial titrated from 20 nM. 50 μL was added to the cells and incubated for 1 hours at room temperature with shaking. Samples were washed one time with flow buffer. […] Samples were washed once with flow buffer. Samples were stained with 100 uL Zombie Fixable Viability Dyes at 1:800 dilution per well and incubated in dark at room temperature for 30 mins. Samples were spun down at 1300 rpm for 5 minutes and washed once with 200 uL flow buffer. Reconstituted samples in 200 uL of flow buffer and read on Attune NxT cytometer. EC50 values for CD3 binding were calculated using Prism 8.1 software.

[8] = target: T1, full-length human Nectin4 with …; experiment: flow cytometry on CHO/Nectin4 cells
Method: Nectin4/CHO Nectin4 cells were plated at 100,000 cells/well in a 96-well plate in 50 μL of full media. Cells were rested 1 hour at 37° C. Anti-Nectin4/CD3 was 3-fold serial titrated from 50 nM. 50 μL was added to the cells and incubated for 1 hours with shaking. Samples were washed one time with flow buffer. […] Samples were washed once with flow buffer. Samples were stained with 100 uL Zombie Fixable Viability Dyes (1:800 dilution) per well and incubated in dark at room temperature for 30 mins. Samples were spun down at 1200 rpm for 5 minutes and washed once with 200 uL flow buffer. Reconstituted samples in 200 uL of flow buffer and read on Attune NxT cytometer. EC₅₀ values for Nectin4 Binding were determined using Prism software.

[9] = target: T5, human CD3E HIS tagged protein (human, UniProt P07766 23-126); experiment: SPR Biacore T200, bispecific captured on Protein A chip, CD3E-HIS injected
T5 construct: not shown: HIS tag
T5 sequence (P07766 23-126 limits assumed): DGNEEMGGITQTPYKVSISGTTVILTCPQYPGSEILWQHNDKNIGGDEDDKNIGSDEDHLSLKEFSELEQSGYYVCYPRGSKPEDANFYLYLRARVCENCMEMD
Method: (§1) The assay was run with Biacore T200 control software version 2.0. For each cycle, 1 ug/mL of anti-hNectin4/CD3 antibody was captured for 60 seconds at flow rate of 10 ul/min on flow cell 2 in 1×HBSP buffer on Protein A sensor chip. 2-fold serial diluted CD3E-HIS or hNectin4-HIS tagged protein was injected onto both reference flow cell 1 and anti-Nectin4/CD3 bispecific captured flow cell 2 for 150 seconds at flow rate of 30 ul/mins followed by wash for 300 seconds. The flow cells were then regenerated with Glycine pH2 for 60 seconds at flow rate of 30 ul/mins. 8 concentration points from 100 nM-0 nM (CD3E-HIS) or 300 nM-0 nM (Nectin4-HIS) was assayed per anti-Nectin4 IgG in a 96 well plate. The kinetics of Anti-Nectin4/CD3 bispecific binding to CD3E and Nectin4 proteins was analyzed with Biacore T200 evaluation software version 3.0. The specific binding response unit was derived from subtraction of binding to reference flow cell 1 from antibody captured flow cell 2. Table 10 below listed the kinetics results. ND means not determined. NA means data not available.

[10] = target: T3, human Nectin4-HIS tagged recombinant …; experiment: ELISA, coated Nectin4 HIS tagged protein, bispecific titrated, anti-Human HRP
Method: (§2) An ELISA assay was developed to determine the EC₅₀ of anti-Nectin4/CD3 bispecific antibodies. Briefly, 384 well plate was immobilized with human CD3E or Nectin4 HIS tagged protein at final concentration of 2 ug/mL in 1×PBS in total volume of 25 uL per well. The plate was incubated overnight at 4° C. followed by blocking with 80 uL of superblock per well for 1 hour. Purified anti-Nectin4/CD3 was 3-fold serial titrated from 100 nM. 25 uL was added to human Nectin4/CD3 immobilized wells and incubated for 1 hour with shaking. The CD3E or Nectin4 binding was detected by adding 25 uL of anti-Human HRP diluted at 1:10000 in 1×PBST. In between each step, the plate was washed 3 times with […] in a plate washer. The plate was then developed with 20 ul of TMB substrate for 5 mins and stopped by adding 20 ul of 2N sulfuric acid. The plate was read at OD450 nm Biotek plate reader and then plotted in Prism 8.1 software to calculate EC50.

[11] = target: T3, human Nectin4-HIS tagged recombinant …; experiment: SPR Biacore T200, bispecific captured on Protein A chip, hNectin4-HIS injected
Method: as §1

[12] = target: T5, human CD3E HIS tagged protein; experiment: ELISA, coated human CD3E HIS tagged protein, bispecific titrated, anti-Human HRP
Method: as §2

| Binder | ADCC Bioreporter assay EC50 [1] | EC50 (mouse nectin4 protein) | EC50 (monkey nectin4 protein) | EC50 [2] | EC50 [3] | EC50 [4] | Kd [5] | NFAT reporter EC50 (CD3 on Jurkat cells [6]) | EC50 (CD3 on Jurkat cells [7]) | EC50 [8] | Kd [9] | koff [9] | kon [9] | EC50 [10] | Kd [11] | koff [11] | kon [11] | EC50 [12] |
| --- | --- | --- | --- | --- | --- | --- | --- | --- | --- | --- | --- | --- | --- | --- | --- | --- | --- | --- |
| B1 | 1.16 nM | 0.017 nM | 0.019 nM | 0.018 nM | 0.061 nM | 0.0062 nM | 1.47 nM | – | – | – | – | – | – | – | – | – | – | – |
| B2 | 1.43 nM | 0.037 nM | 0.043 nM | 0.035 nM | – | 0.017 nM | 11 nM | – | – | – | – | – | – | – | – | – | – | – |
| B3 | – | – | – | – | – | – | – | 3.8 pM | 0.169 nM | 0.146 nM | 2.23 nM | 0.00059 s⁻¹ | 265000 M⁻¹ s⁻¹ | 0.019 nM | 1.22 nM | 0.00012 s⁻¹ | 98800 M⁻¹ s⁻¹ | 5 pM |
